Measured values taken from the DeepSol protein solubility set.

experiment: soluble on expression in E. coli; label from the status in PepcDB or PDB records

Sequence | soluble on expression in E. coli
MTPIHVVGIGLDGLPGLAAAVQQIIDSATLLVGSDRHLQLIPQGDTPRLSLGNFNASLKAIQTHLDTTANPQVVILTSGDPLFYGLGRWLLEVFAPDQLTFHPHLSAVQLAFSRLKLPWQDAVIYSAHGRDLAGLVPLLQRGVEKIAIYTDGEANIAAISRLYQALHIPVTYRAWVCQALGSAEEAILPWDLAQPVTALPPVHPLNLVVLLRQPQRLPPREQPIVGLGDDQFFTFADRPSLMTKREVRVLVLAELALTSTVEIVWDIGAGTGSVAVEIARLAPQATIYAIEKTAIGFQLIERNRRAFGLANLIPLQGTAPQCLRDLPPPDRVFIGGSGAQLLANLDYCWSHLNAGGRLVLAIATLEHQGQVLHWCQTHQINPQVLQVQLSRSVPLGQGHRLHPLNPVTLMTLTQGLEHHHHHH | not soluble
MTPLKRYQKDIAEHGFQRDEAQHQAVVALDKLYHDIVEFQSAPIPQLSKWQKLMGKKVEMPQPPKGLYFWGGVGRGKTYLMDAFFDALPTDRKMRVHFHRFMYRVHDELKRLGEVENPLSKVADLFKQEADIVCFDEFFVSDITDAMILATLLQEMFKRQMVLVATSNIEPQNLYRNGLQRARFLPAIDMILARCHVLNVDSGVDYRLRTLEQAEIYHYPLDEQASINLNTYYQQLTAERKSVAHKIDINHRQISVIEASDGVLHASFEQLCQTARSQNDYIELSRIYHTVLLADVRQMNRKIDDAARRFIALVDEFYERNVKLIISAEVEMDALYSEGQLEFEFKRCVSRLTEMQSHEYLAREHLALEHHHHHH | soluble
MTPRIIVTDMDGTLLNSEHEIPARFWPLLDEMHEQGIVFAPASGRQLYTLLDQFAQAGKDLSVIAENGTVVYHEGEIISVTTIDPEVAHRVIRTMAHSDLDWGVVVCRVDGAFIARGDVEFLTETVRYYAKLDVVDDLHSVVNDQVIKLAIYSFPDAETVAAPALAESVGDHTLAISGAHWIDIMSPHANKGVALQQLADNLGVPIEHTAAFGDYLNDYELLHTAGTAYAMSNAHPDIKDIADHVVGSNDEESVLTTIHSLLTAAK | not soluble
MTQAVMLQGTASDVGKSVLAAGLCRIFYQDGLRTAPFKSQNMALNSGITPDGKEMGRAQIFQAEAAGITPDVRMNPVLLKPTSDRQAQVVLMGKVATNMDAVSYHDYKPRLREQILAVYNSLAQEYDVIVLEGAGSPAEINLRDRDIVNMGMAEMAQCPVILVADIDRGGVFAAIYGTLALLHKQERDRVKGVIINKFRGDVALLYSGIEQIESLTGVPVLGVMPWLDVDLEDEDGVALQNDKYRGNAPRDITIAIVQLPHISNFTDFNALAAQPDVRIRYIRRPEALTDVDLVILPGSKNTLSDLAWLRESGMADAVLQTHRQGVPVMGICGGYQMLGDTIVDEVESGLGTQPGLGLLNTITRFAQDKTTTQVNATMSGELPGWLAAAAGLPVRGYEIHMGETVLQEGCCTAMTLQKNGCSVADGAVTADGLAFGTYLHGLFDSDAFTRAVVNGLRARKGLAPWETTFCYADHKARQFDLLAEAMRQHIDIDKIYTIMQQHQEPV | not soluble
MTQHSRDTPQFYLTAPSPCPYLPGRHERKVFTHLVGNKAGELNDLLTHGGFRRSQSIAYRPACDQCRACVSVRVIANEFKPSRNQRKLLARNADIVGEQRNPVPTSEQYSVFRAYLDQRHRYGGMADMTVLDYAMMVEDSHVQTRMIEYRKRTPDTGITGRGGELIAAALTDVLGDGLSMVYSFYEPNEQHRSLGTFMILDHIARARRLGLPYVYLGYWIEGSKKMDYKGRYLPQQRLAPSGWLRIDASGEMQPEPQDLEHHHHHH | not soluble
MTQLRHFSHGASVFDIDSVEDFTEKVIQSSVPVIVDFHAEWCGPCQALGPRLEEKVNGRQGSVLLAKINVDHAGELAMDYGISAVPTVFAFKNGEKISGFSGVLDDEQLDDFIEDVLAA | not soluble
MTQPAAAVAAAAPAQTAPILGECVLKLSRSTTYEPPLYLFPELLPPVPQGTPPLPVWDAVADAVDIAASSWRVADATQLIAAGVAAAGTSGIKPSTGVERRPQAMVTLTSMIAENRLLAAGLDATVLERDAFSSAAIITHLAALQARMGLSDEEGAAIMSNHFINLLAWQKLRELNGPSLHAAVSRAEQKVSDEEAAGSAAFSPSHAAPPPSRKRSRADQDNDERDVWLPSPHPWATEAELAASDGSGRFVAVSEANVEQQVELLRTLAELYHRPWRTLASRGQQTDFVVPPGTVNVTSPFADNSKVPGALLDPATALGWGATLSSSLSTDYFGGVRVAHTACFYAVVLSAGTPTSAGKSVAPAPTRLPLDELTTYFGRESGVRGAAAVAAAAATPIAGALAPYTTHPEVLSRFQFALVLRPVYEHAADANEVRRPDSHLHVGKREPSTDDEASESDADAHQGHAAVLHTKRPHHYTLWLVNYGRNGVRVAGRGWVLSEPRQLQAGDVLIVGSEVQLRVEEHFSAAAARAPVVSDATLNTASVSSSQVKQERIEG | not soluble
